This passage reports Km, kcat and kcat/Km results from patent US9994881B2, “Functionalized carboxylic acids and alcohols by reverse fatty acid oxidation in engineered microbes” (William Marsh Rice University, priority 2011, dated 2018).

Substrate in series [1]: CC(=O)CC(=O)SCCNC(=O)CCNC(=O)[C@H](O)C(C)(C)COP(=O)(O)OP(=O)(O)OC[C@H]1O[C@@H](n2cnc3c(N)ncnc32)[C@H](O)[C@@H]1OP(=O)(O)O
Nature of the series: purified protein, by the assay type. Conditions: other: reverse direction, pH 7.5, 2 mM CoA, 25° C.

Substrate in series [2]: CC(=O)SCCNC(=O)CCNC(=O)[C@H](O)C(C)(C)COP(=O)(O)OP(=O)(O)OC[C@H]1O[C@@H](n2cnc3c(N)ncnc32)[C@H](O)[C@@H]1OP(=O)(O)O
Nature of the series: purified protein, by the assay type. Conditions: other: acetyl-CoA condensation, pH 7.5, 0.2 mM NADH, 25° C.

B1: E. coli AtoB (thiolase), wild type, his-tagged (Escherichia coli K-12) (protein)
chain: MKNCVIVSAVRTAIGSFNGSLASTSAIDLGATVIKAAIERAKIDSQHVDEVIMGNVLQAGLGQNPARQALLKSGLAETVCGFTVNKVCGSGLKSVALAAQAIQAGQAQSIVAGGMENMSLAPYLLDAKARSGYRLGDGQVYDVILRDGLMCATHGYHMGITAENVAKEYGITREMQDELALHSQRKAAAAIESGAFTAEIVPVNVVTRKKTFVFSQDEFPKANSTAEALGALRPAFDKAGTVTAGNASGINDGAAALVIMEESAALAAGLTPLARIKSYASGGVPPALMGMGPVPATQKALQLAGLQLADIDLIEANEAFAAQFLAVGKNLGFDSEKVNVNGGAIALGHPIGASGARILVTLLHAMQARDKTLGLATLCIGGGQGIAMVIERLN
B1: in series [1], the Km turned out to be 68.1 ± 2.56 µM, the kcat turned out to be 9.23 s⁻¹ and the kcat/Km came out at 136000 M⁻¹ s⁻¹. Besides, in series [2], the Km came out at 892.0 ± 56.5 µM, the kcat is 3.17 s⁻¹ and the kcat/Km amounted to 3550 M⁻¹ s⁻¹.
